Measurements published in article PMC3530388 (Journal of the American Chemical Society, 2012).

Target: the molecule itself
Test: AUC

B1: dihydroneopterin aldolase from Mycobacterium tuberculosis H37Rv (enzyme)
chain: MADRIELRGLTVHGRHGVYDHERVAGQRFVIDVTVWIDLAEAANSDDLADTYDYVRLASRAAEIVAGPPRKLIETVGAEIADHVMDDQRVHAVEVAVHKPQAPIPQTFDDVAVVIRRSRRGGRGWVVPAGGAV
stoichiometry N: 4
